Where no end group is shown, it is not given here. Cy5 = Cy5 fluorophore
Experiments:
Assay in all cases: fluorescence polarisation
[1] = biological target: LC3A(1-120) (human, UniProt Q9H492 1-120)
[2] = biological target: LC3B(1-120) (human, UniProt Q9GZQ8 1-120)
[3] = biological target: LC3C(1-126) (human, UniProt Q9BXW4 1-126)
[4] = biological target: GABARAP(1-116) (human, UniProt O95166 1-116)
[5] = biological target: […]1(1-117) (human, UniProt Q9H0R8 1-117)
[6] = biological target: […]2(1-117) (human, UniProt P60520 1-117)

Measured: binding result

SDNSSGGDDDWTHLSSK-Cy5 [p62-LIR peptide linked to a Cy5 fluorophore]
binds: all assays above
